Assay results published in patent US20110217401.

Biological target: human apolipoprotein B (apoB) of serum low density lipoprotein particles (UniProt P04114)
Sequence (P04114 28-4563): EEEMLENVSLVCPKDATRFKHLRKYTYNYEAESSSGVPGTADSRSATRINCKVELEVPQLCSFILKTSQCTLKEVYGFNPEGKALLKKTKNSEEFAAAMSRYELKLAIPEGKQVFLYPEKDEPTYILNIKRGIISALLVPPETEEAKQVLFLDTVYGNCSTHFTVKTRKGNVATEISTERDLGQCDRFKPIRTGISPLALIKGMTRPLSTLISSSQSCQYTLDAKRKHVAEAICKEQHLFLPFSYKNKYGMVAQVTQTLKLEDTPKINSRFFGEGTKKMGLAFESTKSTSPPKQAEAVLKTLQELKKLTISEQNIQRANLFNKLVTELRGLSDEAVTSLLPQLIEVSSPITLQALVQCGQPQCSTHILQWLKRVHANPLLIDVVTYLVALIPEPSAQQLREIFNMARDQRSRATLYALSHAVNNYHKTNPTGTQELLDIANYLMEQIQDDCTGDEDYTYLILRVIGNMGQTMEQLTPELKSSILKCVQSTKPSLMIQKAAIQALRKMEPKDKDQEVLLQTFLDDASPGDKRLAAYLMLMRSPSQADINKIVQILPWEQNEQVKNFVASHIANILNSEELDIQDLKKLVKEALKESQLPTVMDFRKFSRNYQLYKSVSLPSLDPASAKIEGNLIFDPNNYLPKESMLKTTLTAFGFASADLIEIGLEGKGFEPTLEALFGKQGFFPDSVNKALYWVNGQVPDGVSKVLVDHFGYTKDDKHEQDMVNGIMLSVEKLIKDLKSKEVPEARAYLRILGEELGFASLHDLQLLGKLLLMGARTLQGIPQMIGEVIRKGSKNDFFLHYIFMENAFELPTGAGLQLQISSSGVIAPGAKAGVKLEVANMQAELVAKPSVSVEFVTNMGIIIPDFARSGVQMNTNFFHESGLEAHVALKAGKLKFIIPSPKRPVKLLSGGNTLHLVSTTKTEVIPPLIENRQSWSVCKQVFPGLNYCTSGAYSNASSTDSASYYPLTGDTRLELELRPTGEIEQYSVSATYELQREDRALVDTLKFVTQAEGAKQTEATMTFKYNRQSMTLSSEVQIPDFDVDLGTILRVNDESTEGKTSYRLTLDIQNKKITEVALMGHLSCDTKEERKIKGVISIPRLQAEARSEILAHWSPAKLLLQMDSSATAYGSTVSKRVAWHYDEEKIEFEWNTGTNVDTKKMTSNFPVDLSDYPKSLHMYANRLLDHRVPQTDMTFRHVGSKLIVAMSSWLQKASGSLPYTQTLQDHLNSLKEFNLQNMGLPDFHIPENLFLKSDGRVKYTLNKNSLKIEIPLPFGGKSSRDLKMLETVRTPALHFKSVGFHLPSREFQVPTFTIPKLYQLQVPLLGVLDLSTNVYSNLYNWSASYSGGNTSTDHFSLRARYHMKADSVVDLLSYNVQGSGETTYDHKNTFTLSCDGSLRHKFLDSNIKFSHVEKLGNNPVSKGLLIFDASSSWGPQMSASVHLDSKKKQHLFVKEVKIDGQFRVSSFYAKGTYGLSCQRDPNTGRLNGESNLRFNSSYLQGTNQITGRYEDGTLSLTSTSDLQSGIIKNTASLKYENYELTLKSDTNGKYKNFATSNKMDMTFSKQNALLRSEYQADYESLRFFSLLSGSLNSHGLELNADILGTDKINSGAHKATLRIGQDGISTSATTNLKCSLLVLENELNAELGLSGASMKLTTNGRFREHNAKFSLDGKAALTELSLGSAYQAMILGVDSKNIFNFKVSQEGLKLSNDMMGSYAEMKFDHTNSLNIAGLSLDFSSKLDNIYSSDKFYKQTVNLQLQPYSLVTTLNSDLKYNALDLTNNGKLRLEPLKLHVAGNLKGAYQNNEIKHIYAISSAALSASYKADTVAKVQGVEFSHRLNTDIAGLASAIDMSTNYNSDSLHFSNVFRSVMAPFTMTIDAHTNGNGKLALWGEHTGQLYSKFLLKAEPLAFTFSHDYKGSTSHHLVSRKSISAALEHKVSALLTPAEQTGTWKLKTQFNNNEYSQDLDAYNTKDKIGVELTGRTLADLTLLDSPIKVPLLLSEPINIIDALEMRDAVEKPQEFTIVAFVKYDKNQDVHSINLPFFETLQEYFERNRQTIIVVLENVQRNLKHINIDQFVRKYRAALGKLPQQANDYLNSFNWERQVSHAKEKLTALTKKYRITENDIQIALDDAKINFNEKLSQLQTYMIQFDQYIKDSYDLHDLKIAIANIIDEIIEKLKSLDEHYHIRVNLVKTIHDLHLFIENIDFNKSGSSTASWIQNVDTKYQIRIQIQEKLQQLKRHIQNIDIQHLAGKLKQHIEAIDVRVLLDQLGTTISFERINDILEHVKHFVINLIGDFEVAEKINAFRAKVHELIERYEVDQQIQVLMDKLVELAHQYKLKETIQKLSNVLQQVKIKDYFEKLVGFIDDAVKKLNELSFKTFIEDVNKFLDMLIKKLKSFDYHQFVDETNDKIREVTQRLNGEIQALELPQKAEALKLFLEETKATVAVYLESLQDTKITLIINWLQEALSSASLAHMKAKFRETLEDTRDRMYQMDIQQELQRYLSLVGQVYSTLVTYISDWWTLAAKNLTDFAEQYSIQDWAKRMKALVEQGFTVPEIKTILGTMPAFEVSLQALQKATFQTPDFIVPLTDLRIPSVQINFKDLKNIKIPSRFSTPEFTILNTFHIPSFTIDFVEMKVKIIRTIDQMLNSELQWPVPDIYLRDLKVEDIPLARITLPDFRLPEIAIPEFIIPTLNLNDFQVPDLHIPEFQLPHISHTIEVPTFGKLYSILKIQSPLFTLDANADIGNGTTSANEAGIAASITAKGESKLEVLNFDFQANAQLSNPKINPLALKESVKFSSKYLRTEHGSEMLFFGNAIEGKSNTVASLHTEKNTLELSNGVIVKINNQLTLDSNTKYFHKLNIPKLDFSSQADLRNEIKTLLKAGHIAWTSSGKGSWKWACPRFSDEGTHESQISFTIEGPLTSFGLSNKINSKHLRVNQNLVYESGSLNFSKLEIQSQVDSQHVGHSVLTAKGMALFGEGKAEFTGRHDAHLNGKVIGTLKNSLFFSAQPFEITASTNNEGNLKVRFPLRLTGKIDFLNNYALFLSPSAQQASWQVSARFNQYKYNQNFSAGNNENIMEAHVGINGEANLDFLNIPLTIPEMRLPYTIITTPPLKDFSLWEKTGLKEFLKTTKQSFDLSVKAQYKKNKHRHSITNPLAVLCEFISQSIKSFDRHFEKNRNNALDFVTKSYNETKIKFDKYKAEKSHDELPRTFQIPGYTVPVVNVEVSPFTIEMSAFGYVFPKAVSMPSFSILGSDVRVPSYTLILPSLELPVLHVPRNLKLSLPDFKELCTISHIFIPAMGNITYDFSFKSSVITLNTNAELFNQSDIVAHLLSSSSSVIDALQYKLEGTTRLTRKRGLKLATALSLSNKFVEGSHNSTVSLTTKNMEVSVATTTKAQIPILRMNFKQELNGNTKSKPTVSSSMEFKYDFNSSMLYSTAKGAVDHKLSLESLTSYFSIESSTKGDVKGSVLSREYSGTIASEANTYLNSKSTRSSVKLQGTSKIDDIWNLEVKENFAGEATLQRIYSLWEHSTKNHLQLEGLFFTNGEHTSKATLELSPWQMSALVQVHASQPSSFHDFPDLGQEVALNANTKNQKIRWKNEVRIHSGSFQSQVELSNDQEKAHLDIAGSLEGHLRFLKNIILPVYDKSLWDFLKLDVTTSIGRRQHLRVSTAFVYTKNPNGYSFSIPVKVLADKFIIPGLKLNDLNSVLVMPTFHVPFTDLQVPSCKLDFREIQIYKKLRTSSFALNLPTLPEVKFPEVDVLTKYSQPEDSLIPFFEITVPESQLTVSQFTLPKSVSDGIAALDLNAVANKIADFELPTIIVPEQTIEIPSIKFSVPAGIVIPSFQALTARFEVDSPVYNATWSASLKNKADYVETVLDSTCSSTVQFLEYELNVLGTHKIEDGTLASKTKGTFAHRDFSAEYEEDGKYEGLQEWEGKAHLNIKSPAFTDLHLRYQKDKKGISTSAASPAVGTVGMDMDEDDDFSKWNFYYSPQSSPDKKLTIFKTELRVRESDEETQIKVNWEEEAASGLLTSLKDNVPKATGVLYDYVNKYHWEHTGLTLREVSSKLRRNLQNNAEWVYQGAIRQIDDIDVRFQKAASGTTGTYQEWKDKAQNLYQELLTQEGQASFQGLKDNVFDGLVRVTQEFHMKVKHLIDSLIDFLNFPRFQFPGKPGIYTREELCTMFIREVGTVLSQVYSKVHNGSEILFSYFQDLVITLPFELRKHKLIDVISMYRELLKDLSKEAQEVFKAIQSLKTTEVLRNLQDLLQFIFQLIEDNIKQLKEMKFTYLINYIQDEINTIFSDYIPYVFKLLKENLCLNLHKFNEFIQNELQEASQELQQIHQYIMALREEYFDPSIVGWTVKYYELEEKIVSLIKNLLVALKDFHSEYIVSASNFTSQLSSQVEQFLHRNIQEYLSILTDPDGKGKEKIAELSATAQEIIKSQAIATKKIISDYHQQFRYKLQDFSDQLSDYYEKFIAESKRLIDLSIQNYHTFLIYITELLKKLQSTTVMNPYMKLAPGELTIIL

## recombinant arNOX SF2 (recombinant apoBNOX, TM9SF2 expressed in E. coli from pET11a-TM9SF2)
  Oxidation of protein thiols of human apoB (DTNB reactivity), nmoles SH oxidized, complete mixture, 2 h (nmoles SH oxidized): 500
  Oxidation of protein thiols of human apoB (DTNB reactivity), relative units, complete mixture, 2 h (relative units): 25
